Measurements published in paper PMC10786891, “Massively parallel profiling of RNA-targeting CRISPR-Cas13d”.
Positions count from the first letter of the chain named.

T1: EsCas13d, nuclease-dead (Eubacterium siraeum, UniProt B0MS50, R295A;H300A;R849A;H854A)
T1 sequence: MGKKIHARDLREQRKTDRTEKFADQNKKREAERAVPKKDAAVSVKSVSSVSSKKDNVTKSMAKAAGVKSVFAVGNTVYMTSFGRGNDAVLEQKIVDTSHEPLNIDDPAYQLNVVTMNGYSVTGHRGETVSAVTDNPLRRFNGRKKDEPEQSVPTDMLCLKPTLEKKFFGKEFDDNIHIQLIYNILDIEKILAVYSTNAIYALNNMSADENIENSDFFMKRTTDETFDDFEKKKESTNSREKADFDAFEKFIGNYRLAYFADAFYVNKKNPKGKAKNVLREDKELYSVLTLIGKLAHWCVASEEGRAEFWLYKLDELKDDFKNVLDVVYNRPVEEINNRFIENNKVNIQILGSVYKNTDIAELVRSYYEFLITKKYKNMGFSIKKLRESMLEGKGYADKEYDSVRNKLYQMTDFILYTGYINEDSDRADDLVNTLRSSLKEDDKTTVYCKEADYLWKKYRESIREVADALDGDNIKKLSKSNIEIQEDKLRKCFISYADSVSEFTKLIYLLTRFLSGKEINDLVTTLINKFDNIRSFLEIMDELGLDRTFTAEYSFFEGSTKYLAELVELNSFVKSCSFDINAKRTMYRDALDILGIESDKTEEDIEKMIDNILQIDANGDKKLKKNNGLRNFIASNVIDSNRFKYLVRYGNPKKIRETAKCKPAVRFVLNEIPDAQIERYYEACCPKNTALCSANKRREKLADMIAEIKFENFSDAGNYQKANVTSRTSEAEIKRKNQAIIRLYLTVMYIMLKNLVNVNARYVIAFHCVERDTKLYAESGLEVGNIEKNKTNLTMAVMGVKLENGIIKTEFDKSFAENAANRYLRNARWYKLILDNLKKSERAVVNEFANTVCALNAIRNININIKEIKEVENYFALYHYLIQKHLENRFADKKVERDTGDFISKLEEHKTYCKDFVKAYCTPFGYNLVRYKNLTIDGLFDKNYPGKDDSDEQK

B1: target 1 MT 5'PFS GUC 3'PFS CCG (mixed)
RNA 1: CACCCGUGCAAAAAUGCAGGGGUCUAAAACUGAGCGGAUAACCUCUCUAUGG
RNA 2: GGGAAUGGAUCCACAUCUACGAAUUCGUCCCAUAGAGAGGUUAUCCGCUCACCGAGAUCGGAAGAGCACACGU
B2: target 1 MT 5'PFS GCG 3'PFS AGU (mixed)
RNA 1: B1 RNA 1
RNA 2: B1 RNA 2 with U28C, C29G, C52A, C53G, G54U
B3: target 1 MT 5'PFS GGC 3'PFS AUA (mixed)
RNA 1: B1 RNA 1
RNA 2: B1 RNA 2 with U28G, C52A, C53U, G54A
B4: target 1 MT 5'PFS GGC 3'PFS AUC (mixed)
RNA 1: B1 RNA 1
RNA 2: B1 RNA 2 with U28G, C52A, C53U, G54C
B5: target 1 MT 5'PFS GGC 3'PFS AUG (mixed)
RNA 1: B1 RNA 1
RNA 2: B1 RNA 2 with U28G, C52A, C53U
B6: target 1 MT 5'PFS GGC 3'PFS AUU (mixed)
RNA 1: B1 RNA 1
RNA 2: B1 RNA 2 with U28G, C52A, C53U, G54U
B7: target 1 MT 5'PFS GCC 3'PFS UAG (mixed)
RNA 1: B1 RNA 1
RNA 2: B1 RNA 2 with U28C, C52U, C53A
B8: target 1 insA 3' of 5,insC 3' of 3 (mixed)
RNA 1: B1 RNA 1
RNA 2: GGGAAUGGAUCCACAUCUACGAAUUCGUACCAUAGAGAGGUUAUCCGACUCCACCGAGAUCGGAAGAGCACACGU
B9: target 1 MT 5'PFS UAU 3'PFS UCC (mixed)
RNA 1: B1 RNA 1
RNA 2: B1 RNA 2 with G27U, U28A, C29U, C52U, G54C
B10: target 1 MT 5'PFS GCC 3'PFS UAC (mixed)
RNA 1: B1 RNA 1
RNA 2: B1 RNA 2 with U28C, C52U, C53A, G54C
B11: target 1 MT 5'PFS GCC 3'PFS UAA (mixed)
RNA 1: B1 RNA 1
RNA 2: B1 RNA 2 with U28C, C52U, C53A, G54A
B12: target 1 MT 5'PFS GAC 3'PFS CCC (mixed)
RNA 1: B1 RNA 1
RNA 2: B1 RNA 2 with U28A, G54C
B13: target 1 MT 5'PFS GCC 3'PFS UAU (mixed)
RNA 1: B1 RNA 1
RNA 2: B1 RNA 2 with U28C, C52U, C53A, G54U
B14: target 1 MT 5'PFS AGA 3'PFS CCG (mixed)
RNA 1: B1 RNA 1
RNA 2: B1 RNA 2 with G27A, U28G, C29A
B15: target 1 MT 5'PFS AGA 3'PFS CCU (mixed)
RNA 1: B1 RNA 1
RNA 2: B1 RNA 2 with G27A, U28G, C29A, G54U
B16: target 1 MT 5'PFS CAA 3'PFS CCG (mixed)
RNA 1: B1 RNA 1
RNA 2: B1 RNA 2 with G27C, U28A, C29A
B17: target 1 MT 5'PFS CAA 3'PFS CCC (mixed)
RNA 1: B1 RNA 1
RNA 2: B1 RNA 2 with G27C, U28A, C29A, G54C
B18: target 1 MT 5'PFS CAA 3'PFS AUU (mixed)
RNA 1: B1 RNA 1
RNA 2: B1 RNA 2 with G27C, U28A, C29A, C52A, C53U, G54U
B19: target 1 insG 3' of 19,insG 3' of 6 (mixed)
RNA 1: B1 RNA 1
RNA 2: GGGAAUGGAUCCACAUCUACGAAUUCGUACCAUGAGAGAGGUUAUCCGGCUCACCGAGAUCGGAAGAGCACACGU
B20: target 1 MT 5'PFS UCC 3'PFS CCG (mixed)
RNA 1: B1 RNA 1
RNA 2: B1 RNA 2 with G27U, U28C
B21: target 1 MT 5'PFS GUU 3'PFS AAC (mixed)
RNA 1: B1 RNA 1
RNA 2: B1 RNA 2 with C29U, C52A, C53A, G54C
B22: target 1 MT 5'PFS UCC 3'PFS CCU (mixed)
RNA 1: B1 RNA 1
RNA 2: B1 RNA 2 with G27U, U28C, G54U
B23: target 1 MT 5'PFS GUA 3'PFS CAU (mixed)
RNA 1: B1 RNA 1
RNA 2: B1 RNA 2 with C29A, C53A, G54U
B24: target 1 MT 5'PFS GUA 3'PFS CAA (mixed)
RNA 1: B1 RNA 1
RNA 2: B1 RNA 2 with C29A, C53A, G54A
B25: target 1 MT 5'PFS GUA 3'PFS CAC (mixed)
RNA 1: B1 RNA 1
RNA 2: B1 RNA 2 with C29A, C53A, G54C
B26: target 1 MT 5'PFS GUA 3'PFS CAG (mixed)
RNA 1: B1 RNA 1
RNA 2: B1 RNA 2 with C29A, C53A
B27: target 1 MT 5'PFS UGC 3'PFS ACU (mixed)
RNA 1: B1 RNA 1
RNA 2: B1 RNA 2 with G27U, U28G, C52A, G54U
B28: target 1 MT 5'PFS CAA 3'PFS AAC (mixed)
RNA 1: B1 RNA 1
RNA 2: B1 RNA 2 with G27C, U28A, C29A, C52A, C53A, G54C
B29: target 1 MT 5'PFS CAA 3'PFS AAA (mixed)
RNA 1: B1 RNA 1
RNA 2: B1 RNA 2 with G27C, U28A, C29A, C52A, C53A, G54A
B30: target 1 insG 3' of 22,insU 3' of 2 (mixed)
RNA 1: B1 RNA 1
RNA 2: B19 RNA 2 with C31G, A32C, U33A, G34U, G49C, C50U, U51C, C52U
B31: target 1 MT 5'PFS AGA 3'PFS AAU (mixed)
RNA 1: B1 RNA 1
RNA 2: B1 RNA 2 with G27A, U28G, C29A, C52A, C53A, G54U
B32: target 1 MT 5'PFS UGC 3'PFS ACG (mixed)
RNA 1: B1 RNA 1
RNA 2: B1 RNA 2 with G27U, U28G, C52A
B33: target 1 MT 5'PFS UGC 3'PFS ACA (mixed)
RNA 1: B1 RNA 1
RNA 2: B1 RNA 2 with G27U, U28G, C52A, G54A
B34: target 1 MT 5'PFS AGA 3'PFS AAC (mixed)
RNA 1: B1 RNA 1
RNA 2: B1 RNA 2 with G27A, U28G, C29A, C52A, C53A, G54C
B35: target 1 MT 5'PFS ACU 3'PFS CAU (mixed)
RNA 1: B1 RNA 1
RNA 2: B1 RNA 2 with G27A, U28C, C29U, C53A, G54U
B36: target 1 MT 5'PFS AGA 3'PFS AAG (mixed)
RNA 1: B1 RNA 1
RNA 2: B1 RNA 2 with G27A, U28G, C29A, C52A, C53A
B37: target 1 MT 5'PFS AAC 3'PFS UUC (mixed)
RNA 1: B1 RNA 1
RNA 2: B1 RNA 2 with G27A, U28A, C52U, C53U, G54C
B38: target 1 MT 5'PFS UGG 3'PFS UUA (mixed)
RNA 1: B1 RNA 1
RNA 2: B1 RNA 2 with G27U, U28G, C29G, C52U, C53U, G54A
B39: target 1 MT 5'PFS ACG 3'PFS CGU (mixed)
RNA 1: B1 RNA 1
RNA 2: B1 RNA 2 with G27A, U28C, C29G, C53G, G54U

Target: T1, EsCas13d, nuclease-dead
Assay: crRNA (strand 1, pre-loaded); Mg2+; 40 mM Tris-HCl pH 7.5, 150 mM NaCl, 6 mM MgCl2, 1 mM DTT, 0.1% Tween-20, 0.2 mg/ml BSA; 25 C; 10 min per concentration, then washed
Conditions: tags: His6-TwinStrep-SUMO cleaved; N-terminal SNAP kept (SNAP-Surface 488); label: 3' end held by stalled T7 RNA polymerase

In order of rising Kd:
1. B18  9.8 ± 3.5 nM
2. B13  10.8 ± 2.45 nM
3. B27  10.8 ± 2.45 nM
4. B23  12 ± 1.15 nM
5. B8  12.3 ± 2.2 nM
6. B37  14.1 ± 3.9 nM
7. B1  14.8 ± 2.55 nM
8. B22  ~15 nM
9. B10  16 ± 5.5 nM
10. B11  16 ± 6 nM
11. B32  16.2 ± 4.65 nM
12. B3  16.6 ± 2.05 nM
13. B25  16.9 ± 2.35 nM
14. B26  17.6 ± 2.25 nM
15. B20  18 ± 5 nM
16. B6  19.6 ± 4.75 nM
17. B24  19.6 ± 2.3 nM
18. B7  21.8 ± 6.1 nM
19. B5  22.5 ± 7 nM
20. B33  23.5 ± 8.5 nM
21. B16  24 ± 6.5 nM
22. B28  ~27.5 nM
23. B2  29.5 ± 7 nM
24. B30  29.7 ± 2.7 nM
25. B17  ~30.5 nM
26. B39  ~34 nM
27. B9  36 ± 13.5 nM
28. B12  ~37 nM
29. B14  37 ± 10.5 nM
30. B4  42.5 ± 8.5 nM
31. B29  43 ± 18 nM
32. B38  48.5 ± 10.5 nM
33. B21  52 ± 19 nM
34. B31  61 ± 22 nM
35. B15  ~64.5 nM
36. B36  ~65.5 nM
37. B19  76 ± 9 nM
38. B35  ~80 nM
39. B34  ~90 nM
